In paper PMC5702047:

Target: TRC40 (rabbit (endogenous in reticulocyte lysate))

reduction of the integration of Sec61βOPG2 and RAMP4OPG into RMs (N-glycosylation) in vitro, post-translational, with an excess of WRBcc: 50%
Substance: cytosolic domain of the WRB receptor (WRBcc) (domain or fragment)
